1 substance from article PMC2175255 can be followed below.

This experiment concerns the target erbB2 receptor tyrosine kinase (rat (endogenous in primary Schwann cells)) (UniProt P06494). The experiment in a line: co-IP.
Sequence of UniProt P06494 (P06494 23-1257): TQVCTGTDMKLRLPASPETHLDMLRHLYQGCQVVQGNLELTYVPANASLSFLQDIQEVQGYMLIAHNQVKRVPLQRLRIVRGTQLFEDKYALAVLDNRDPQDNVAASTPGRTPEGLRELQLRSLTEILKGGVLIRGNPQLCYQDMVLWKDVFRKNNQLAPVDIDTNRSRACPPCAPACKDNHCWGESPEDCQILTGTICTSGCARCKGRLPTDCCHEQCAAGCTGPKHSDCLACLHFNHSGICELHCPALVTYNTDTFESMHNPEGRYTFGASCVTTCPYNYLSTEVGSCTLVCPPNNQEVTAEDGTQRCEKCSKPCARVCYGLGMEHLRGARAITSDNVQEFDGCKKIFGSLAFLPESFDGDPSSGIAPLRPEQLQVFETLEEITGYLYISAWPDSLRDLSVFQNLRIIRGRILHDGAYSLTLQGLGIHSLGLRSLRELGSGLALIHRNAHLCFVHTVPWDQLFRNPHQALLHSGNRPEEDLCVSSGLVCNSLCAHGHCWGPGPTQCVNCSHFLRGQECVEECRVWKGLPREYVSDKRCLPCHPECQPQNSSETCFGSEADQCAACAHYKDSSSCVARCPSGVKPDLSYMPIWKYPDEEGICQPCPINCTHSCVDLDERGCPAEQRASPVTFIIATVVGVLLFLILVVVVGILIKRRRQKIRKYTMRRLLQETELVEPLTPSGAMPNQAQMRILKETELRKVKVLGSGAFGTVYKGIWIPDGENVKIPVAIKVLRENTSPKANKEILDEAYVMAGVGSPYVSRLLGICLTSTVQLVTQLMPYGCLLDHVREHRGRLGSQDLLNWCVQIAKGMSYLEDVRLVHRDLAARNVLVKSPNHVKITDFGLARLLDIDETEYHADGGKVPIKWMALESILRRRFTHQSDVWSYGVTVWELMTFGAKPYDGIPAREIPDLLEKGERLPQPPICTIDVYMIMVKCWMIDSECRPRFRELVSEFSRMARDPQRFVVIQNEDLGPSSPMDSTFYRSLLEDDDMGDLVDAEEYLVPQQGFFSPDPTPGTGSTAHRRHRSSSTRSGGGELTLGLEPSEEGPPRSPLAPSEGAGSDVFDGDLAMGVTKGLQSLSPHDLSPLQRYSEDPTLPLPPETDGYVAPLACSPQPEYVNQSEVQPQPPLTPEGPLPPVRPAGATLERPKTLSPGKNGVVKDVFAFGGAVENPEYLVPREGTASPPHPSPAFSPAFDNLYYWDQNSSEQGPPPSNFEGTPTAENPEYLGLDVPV

As for “CD44 transmembrane glycoprotein (from UniProt P26051 22-503) (natural protein)”, the fold CD44 co-immunoprecipitated with rh-GGF2 against untreated cells was found to be 2 fold.
